Experiment [1] has as its target yeast αβ-tubulin (wild type) (yeast (overexpressed in S. cerevisiae)) (UniProt P09733). The experiment is described as follows: AUC.
The target of experiment [2] is Yeast tubulin with a C-terminal … tag, ReAsH-labeled (yeast (overexpressed in S. cerevisiae)) (UniProt P09733). The experiment is described as follows: TIRF microscopy microtubule-binding titration.

One may read the Kd as the concentration at which binding is half-saturated. High values mean weaker binding, low ones tighter binding.

Consider “Stu1-TOG2 (305-567) (from UniProt P38198 305-567) (domain or fragment)”, for which the Kd in experiment [1] stood at 1.68 µM.

B1: Alexa-488-labeled Stu1-TOG2 with a KCK tag (domain or fragment)
chain: DPAMKKNYESLNQLQQDLENLLAPFQSVKETEQNWKLRQSNIIELDNIISGNIPKDNPEEFVTVIKEVQLIELISRATSSLRTTLSLTALLFLKRLIHILNDQLPLSILDQIFVIFKNLLSSTKKISSQTAFHCLITLIIDINHFHNKLFQLSFLLINEKTVTPRFCSAILLRSFLIKFNDSNLSLNNSNTTSPTSKLENNIIYIEEWLKKGISDSQTTVREAMRLTFWYFYKCYPTNAKRLLSSSFSPQLKKATELAIPAHL
modifications: Alexa-488 label
B1 showed a Kd in experiment [2] of 12 µM. This lies in the double-digit micromolar range.

B2: Alexa-488-labeled Stu1-TOG1 with a KCK tag (domain or fragment)
chain: NSNTNTHPDDSFPLYTVFKDESVPIEEKMALLTRFKGHVKKELVNESSIQAYFAALLFISGHYAYRSYPRLIFLSHSSLCYLIKRVAMQSPVQFNDTLVEQLLNHLIFELPNEKKFWLASIKAIEAIYLVNPSKIQAILANFLRRPSENQNGDYLNRIKSTLLTIDELIQINEKNNSNHLQLLRFFMLSFTNLLNNNLNEHANDDNNNVIIELIFDIMYKYLKMDDENSQDLIDGFINDLEVEKFKQKFISLAKSQDQHGSQEDKS
modifications: Alexa-488 label
In experiment [2], B2 came in with a dissociation constant (Kd) of 40 µM. This Kd lies about 3.3-fold higher than the previous one.

The values above are taken from PMC5994897.
